Measured values reported in the supplement of paper PMC11780869.

Tested on: Bacillus subtilis
Assay: cleaved RNA product abundance (RNA/gDNA barcode ratio) relative to median wild-type variant (ratio to wild type); higher = more accumulation of the downstream cleavage product
Details: cleavage site: cggR-gapA (positions -7 to +36 mutated)
Outline: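 Cleaved product abundance for each construct is its RNA-to-gDNA barcode ratio, scaled to the median construct carrying the unmutated site. Cleaved RNA was isolated on a gel, reverse transcribed and barcode-sequenced, with genomic DNA barcodes sequenced alongside and UMIs collapsed. The reporters were truncated aprE or tetM mRNAs with barcoded, mutagenized RNase Y cleavage-site windows integrated into the B. subtilis chromosome, and cultures grew in LB at 37°C from OD600 0.0003 to 0.3.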

[1] = experiment (reporter, strain, medium): exp 4a: truncated aprE reporter, strain BJT201 with 2% xylose (RNase J1 expressed)
[2] = experiment (reporter, strain, medium): exp 2b: truncated aprE reporter, strain BJT200

Sequence	cleaved RNA product abundance [1]	cleaved RNA product abundance [2]	cleaved RNA product abundance (experiment (reporter, strain, medium): exp 6: tetM reporter, strain 168)
ACAGACGAAGGAGCCGCAAAGAAGTTATTAATGGATGAATAATCCCGCAATATAAATATCTCTCACTTATTTAAA	0.144		
ACAGACGAAGGAGCCGCAAAGAAGTTATTAATGGATGAATAATCCCTAAATATAAATATCTCTCACTTATTTAAA	0.196	0.163	
ACAGACGAAGGAGCCGCAAAGAAGTTATTAATGGATGAATAATCCCTCAAAATAAATATCTCTCACTTATTTAAA	0.151	0.11	
ACAGACGAAGGAGCCGCAAAGAAGTTATTAATGGATGAATAATCCCTCAACATAAATATCTCTCACTTATTTAAA	0.101		
ACAGACGAAGGAGCCGCAAAGAAGTTATTAATGGATGAATAATCCCTCAAGATAAATATCTCTCACTTATTTAAA	0.0994	0.0884	
ACAGACGAAGGAGCCGCAAAGAAGTTATTAATGGATGAATAATCCCTCAATAAAAATATCTCTCACTTATTTAAA	0.108	0.136	
ACAGACGAAGGAGCCGCAAAGAAGTTATTAATGGATGAATAATCCCTCAATAGAAATATCTCTCACTTATTTAAA	0.0769		
ACAGACGAAGGAGCCGCAAAGAAGTTATTAATGGATGAATAATCCCTCAATATAAAAATCTCTCACTTATTTAAA	0.156	0.133	
ACAGACGAAGGAGCCGCAAAGAAGTTATTAATGGATGAATAATCCCTCAATATAAACATCTCTCACTTATTTAAA	0.116		
ACAGACGAAGGAGCCGCAAAGAAGTTATTAATGGATGAATAATCCCTCAATATAAAGATCTCTCACTTATTTAAA	0.0975		
ACAGACGAAGGAGCCGCAAAGAAGTTATTAATGGATGAATAATCCCTCAATATAAATAACTCTCACTTATTTAAA	0.23	0.115	
ACAGACGAAGGAGCCGCAAAGAAGTTATTAATGGATGAATAATCCCTCAATATAAATATCTCTCACTTATTTAAA	0.155	0.122	0.174
ACAGACGAAGGAGCCGCAAAGAAGTTATTAATGGATGAATAATCCCTCAATATAAATGTCTCTCACTTATTTAAA	0.194	0.107	
ACAGACGAAGGAGCCGCAAAGAAGTTATTAATGGATGAATAATCCCTCAATATAAATTTCTCTCACTTATTTAAA	0.138	0.112	
ACAGACGAAGGAGCCGCAAAGAAGTTATTAATGGATGAATAATCCCTCAATATAACTATCTCTCACTTATTTAAA	0.072		
ACAGACGAAGGAGCCGCAAAGAAGTTATTAATGGATGAATAATCCCTCAATATAATTATCTCTCACTTATTTAAA	0.108	0.13	
ACAGACGAAGGAGCCGCAAAGAAGTTATTAATGGATGAATAATCCCTCAATATACATATCTCTCACTTATTTAAA	0.165	0.157	
ACAGACGAAGGAGCCGCAAAGAAGTTATTAATGGATGAATAATCCCTCAATATAGATATCTCTCACTTATTTAAA	0.215		
ACAGACGAAGGAGCCGCAAAGAAGTTATTAATGGATGAATAATCCCTCAATATATATATCTCTCACTTATTTAAA	0.15	0.0976	
ACAGACGAAGGAGCCGCAAAGAAGTTATTAATGGATGAATAATCCCTCAATATCAATATCTCTCACTTATTTAAA	0.0753		
ACAGACGAAGGAGCCGCAAAGAAGTTATTAATGGATGAATAATCCCTCAATATTAATATCTCTCACTTATTTAAA	0.0604		
ACAGACGAAGGAGCCGCAAAGAAGTTATTAATGGATGAATAATCCCTCAATTTAAATATCTCTCACTTATTTAAA		0.0807	
ACAGACGAAGGAGCCGCAAAGAAGTTATTAATGGATGAATAATCCCTCACTATAAATATCTCTCACTTATTTAAA		0.0821	
ACAGACGAAGGAGCCGCAAAGAAGTTATTAATGGATGAATAATCCCTCAGTATAAATATCTCTCACTTATTTAAA	0.0629	0.0853	
ACAGACGAAGGAGCCGCAAAGAAGTTATTAATGGATGAATAATCCCTCATTATAAATATCTCTCACTTATTTAAA	0.201		
ACAGACGAAGGAGCCGCAAAGAAGTTATTAATGGATGAATAATCCCTCCATATAAATATCTCTCACTTATTTAAA	0.12		
ACAGACGAAGGAGCCGCAAAGAAGTTATTAATGGATGAATAATCCCTCGATATAAATATCTCTCACTTATTTAAA	0.116	0.0785	
ACAGACGAAGGAGCCGCAAAGAAGTTATTAATGGATGAATAATCCCTCTATATAAATATCTCTCACTTATTTAAA	0.143		
ACAGACGAAGGAGCCGCAAAGAAGTTATTAATGGATGAATAATCCCTGAATATAAATATCTCTCACTTATTTAAA	0.133	0.0961	
